Where a chain is given by its changes, count along the chain named.
Columns and labels:
[1] = system: wild type OprD (FadL-OprD with C-terminal two glycines and 6 histidines)
[2] = system: OprD mutant L8rek#1
[3] = system: OprD mutant L8fxa#1
[4] = biological target: FhuA7/10-1 with histidine tag; assay: cell-based or functional assay
[5] = biological target: T1, wild type OprD (FadL-OprD with C-terminal two glycines and 6 histidines)
T1 chain: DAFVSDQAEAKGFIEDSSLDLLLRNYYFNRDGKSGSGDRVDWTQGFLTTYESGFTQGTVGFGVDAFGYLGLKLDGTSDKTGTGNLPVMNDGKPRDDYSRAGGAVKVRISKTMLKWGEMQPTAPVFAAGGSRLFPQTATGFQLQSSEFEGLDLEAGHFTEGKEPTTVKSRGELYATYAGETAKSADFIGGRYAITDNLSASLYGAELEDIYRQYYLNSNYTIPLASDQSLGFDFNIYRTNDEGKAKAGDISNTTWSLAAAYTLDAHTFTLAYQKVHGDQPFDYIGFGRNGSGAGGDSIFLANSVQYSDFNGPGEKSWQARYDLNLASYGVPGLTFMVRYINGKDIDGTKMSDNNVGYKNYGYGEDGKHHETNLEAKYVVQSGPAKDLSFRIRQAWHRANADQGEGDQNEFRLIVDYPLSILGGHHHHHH

[6] = biological target: T2, native OPRD pseudomonas aeruginosa beta barrel channel polypeptide, expressed with surface antigen D15 signal peptide and a tag
T2 chain: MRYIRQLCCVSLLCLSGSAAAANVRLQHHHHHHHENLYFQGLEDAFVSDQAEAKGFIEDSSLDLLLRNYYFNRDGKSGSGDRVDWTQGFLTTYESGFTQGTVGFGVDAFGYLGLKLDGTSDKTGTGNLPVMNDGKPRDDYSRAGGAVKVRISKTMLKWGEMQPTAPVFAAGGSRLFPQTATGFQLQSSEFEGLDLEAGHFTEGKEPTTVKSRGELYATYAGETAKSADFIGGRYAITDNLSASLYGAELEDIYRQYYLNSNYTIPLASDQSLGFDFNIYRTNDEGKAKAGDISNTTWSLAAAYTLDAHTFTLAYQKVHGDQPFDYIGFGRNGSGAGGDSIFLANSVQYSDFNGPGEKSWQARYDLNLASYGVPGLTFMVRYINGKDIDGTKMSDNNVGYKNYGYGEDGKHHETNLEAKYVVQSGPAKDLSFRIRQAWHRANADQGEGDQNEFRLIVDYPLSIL

[7] = biological target: T3, OprD mutant L8 mmp7turk#3
T3 chain: T2 chain with G398A, K400S, N401L, Y402T, G403A, Y404G

[8] = biological target: T4, FhuA7/10-1 with histidine tag
T4 chain: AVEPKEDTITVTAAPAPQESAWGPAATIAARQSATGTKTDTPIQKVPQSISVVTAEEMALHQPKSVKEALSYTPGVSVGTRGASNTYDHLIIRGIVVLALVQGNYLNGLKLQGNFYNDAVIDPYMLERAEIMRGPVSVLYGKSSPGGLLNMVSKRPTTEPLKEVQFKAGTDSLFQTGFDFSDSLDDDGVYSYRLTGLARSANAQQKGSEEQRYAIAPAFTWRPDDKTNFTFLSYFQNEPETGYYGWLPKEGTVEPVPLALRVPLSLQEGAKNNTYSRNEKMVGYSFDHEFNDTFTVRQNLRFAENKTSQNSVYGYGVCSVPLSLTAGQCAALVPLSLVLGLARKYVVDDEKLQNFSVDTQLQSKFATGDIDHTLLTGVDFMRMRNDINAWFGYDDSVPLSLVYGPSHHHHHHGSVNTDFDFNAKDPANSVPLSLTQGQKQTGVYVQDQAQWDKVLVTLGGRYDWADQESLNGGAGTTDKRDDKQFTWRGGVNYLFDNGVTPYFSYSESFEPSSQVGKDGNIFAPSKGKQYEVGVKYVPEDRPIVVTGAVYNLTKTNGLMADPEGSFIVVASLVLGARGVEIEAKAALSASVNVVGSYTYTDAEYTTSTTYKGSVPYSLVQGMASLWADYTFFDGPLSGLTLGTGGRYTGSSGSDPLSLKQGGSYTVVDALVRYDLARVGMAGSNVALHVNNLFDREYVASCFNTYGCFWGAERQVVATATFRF

enterokinase (Novagen, cat#69066-3)
proteolysis over time, gel bands [1]: Incubation of enterokinase with the wild type OprD yields a non specific band, that does not increase over time
proteolysis over time, gel bands [2]: incubating enterokinase with the mutant L8rek#1 (SEQ ID NO: 22798) shows specific cleavage since band “a” disappears and band “b” becomes more apparent over time

factor Xa (Novagen, cat#69036-3)
proteolysis over time, gel bands [1]: Incubation of Factor X enzyme with the wild type OPRD yields a few non specific bands
proteolysis over time, gel bands [3]: incubation of factor X with mutant L8fxa#1 (SEQ ID NO: 22788) shows specific cleavage, since bands “a” and “b” become more apparent with time

human matrix metalloproteases seven (MMP-7, Calbiochem, cat #444270) (from UniProt P09237 95-267) (enzyme)
inward ionic current, whole-cell patch clamp of HEK293T cells expressing FhuA7/10-1 after addition of MMP-7 [4]: 20000 >=

B1: human matrix metalloproteases seven (MMP-7, Calbiochem, cat #444270) (protein)
chain: YSLFPNSPKWTSKVVTYRIVSYTRDLPHITVDRLVSKALNMWGKEIPLHFRKVVWGTADIMIGFARGAHGDSYPFDGPGNTLAHAFAPGTGLGGDAHFDEDERWTDGSSLGINFLYAATHELGHSLGMGHSSDPNAVMYPTYGNGDPQNFKLSQDDIKGIQKLYGKRSNSRKK
proteolysis, gel bands [5]: Incubation of MMP7 with wild type OprD yields a few non specific bands, compared with the control sample held at the same temperature for 24 hours but with out the MMP7
cleavage, Western blot [6]: the native protein (solubilized in DDM) was not cleaved in the presence of MMP-7 (concentration 0.25 Units per 16 ug of total protein)
proteolysis, gel bands [7]: incubating mmp7 with the mutant L8 mmp7turk#3 (SEQ ID NO: 22836) shows cleavage as the main protein band disappears
cleavage kinetics 0 to 720 min, Western blot and densitometry [8]: the amount of uncleaved protein (˜81 kDa, indicated by ‘a’) decreases while the amount of the cleaved one increases (˜57 kDa, indicated by ‘b’); after 12 hours all His-tagged polypeptides (˜81 kDa) completely disappear along with the ˜57- and ˜37-kDa bands
cleavage of membrane-integrated FhuA7/10-1, Western blot with anti-His5 [8]: Incubation of the membranes with human MMP-7 for 30 minutes at 37 °C resulted in the appearance of ˜57- and ˜37-kDa bands

Reference: patent publication US20130121915A1
